Molecular target: T1, cynomolgus SEMA4A expressed on expi293 cells (UniProt ID G7NV79) (cynomolgus, UniProt Q9H3S1 33-761 (human entry))
T1 construct: Transient transfection in expi293 cells; also called cyno SEMA4A
T1 chain: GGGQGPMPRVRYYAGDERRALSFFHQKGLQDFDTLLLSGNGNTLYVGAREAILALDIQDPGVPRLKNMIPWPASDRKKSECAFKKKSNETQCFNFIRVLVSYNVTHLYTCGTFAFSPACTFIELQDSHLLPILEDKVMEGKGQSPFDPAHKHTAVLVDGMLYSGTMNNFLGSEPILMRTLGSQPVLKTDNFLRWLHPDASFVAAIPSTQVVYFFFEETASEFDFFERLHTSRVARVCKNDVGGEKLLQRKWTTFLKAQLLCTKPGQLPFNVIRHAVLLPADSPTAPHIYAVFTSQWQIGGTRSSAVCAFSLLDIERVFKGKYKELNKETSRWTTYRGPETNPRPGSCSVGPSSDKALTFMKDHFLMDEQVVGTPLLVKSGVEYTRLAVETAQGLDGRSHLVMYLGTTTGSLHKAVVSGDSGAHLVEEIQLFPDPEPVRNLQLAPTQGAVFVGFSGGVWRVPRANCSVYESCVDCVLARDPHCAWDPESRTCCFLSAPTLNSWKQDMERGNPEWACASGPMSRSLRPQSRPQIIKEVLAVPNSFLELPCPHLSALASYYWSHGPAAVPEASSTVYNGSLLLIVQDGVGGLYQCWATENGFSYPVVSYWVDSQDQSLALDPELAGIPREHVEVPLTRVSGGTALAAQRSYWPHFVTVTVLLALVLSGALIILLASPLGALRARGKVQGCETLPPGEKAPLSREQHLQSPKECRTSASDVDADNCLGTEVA
Assay: Mirrorball direct binding, dilution series on expi293 cells transiently transfected with cynomolgus SEMA4A, anti-human Alexa Fluor 647
Description: Hits from the primary screening were re-formatted into the human Alya IgG1 vector and re-expressed and purified as described in section 4.1. In addition, a single clone was identified that contained an Asparagine deamidation motif (Asn Gly) within its VHCDR2. This potential sequence liability was de-risked by synthesising de novo two clonal variant VH genes (Asn Ala and Gln Gly) and cloning these sequences into the human Alya IgG1 expression vector. To determine the specificity profile of each purified human Alya IgG1, a dilution series was tested for binding to human SEMA4A, mouse SEMA4A, cyno SEMA4A, human SEMA4B and mock transfected cells (transient transfections set up in expi 293 cells.) The five assays employed methods described in section 2.3, using the appropriate cells and substituting the un-purified scFv periplasmic preparation with the recombinant human Alya IgG1 dilution series. Data was analysed as Count x median mean intensity (x FLU).

B1: mouse 5E3 expressed as human IgG1 Alya (antibody, V domains shown)
VH: QVQLQQPGAELVMPGASVKMSCKASGYTFTDYWMHWVKQRPGQGLEWIGAIDTSDSYTSYNQKFKGKATLTVDESSSTAYMQLSSLTSEDSAVYYCARDYGNFYYYAMDYWGQGTSVTVSS
VL: QAVVTQESALTTSPGETVTLTCRSSTGAVTTSNYANWVQEKPDHLFTGLIGGTNNRAPGVPARFSGSLIGDKAALTITGAQTEDEAIYFCALWYSNHWVFGGGTKLTVL
notes: Mouse variable domains on human IgG1 Alya constant (pEU1.22; 239iCys and S442C, EU numbering); purified, unconjugated; also called 5E3 IgG1 Alya
binding result: binds
